assay: yeast display, Sf9 membrane polyspecificity reagent, FACS + sequencing; frameworks hold sequencing errors
Procedure, shortened: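 After 36–48 hours of galactose induction, yeast (Saccharomyces cerevisiae BJ5465) displaying a synthetic nanobody library were stained at 4 °C for 1 hour with 10% biotinylated, detergent-solubilized Sf9 membrane reagent. Streptavidin microbeads enriched the stained cells before FACS sorting into low and high (top ~1%) gates on anti-HA and streptavidin fluorescence. Each clone's polyreactivity label reflects its gate of origin.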

Row | Sequence | polyreactivity (PSR sort gate)
1 | QVQLVESGGGLVQEGGSLRLSCAASGRTFWQNAMGWYRQAAGKERELVAAIRIGGSTNYAVSVKGRFTISRDNAKNTVYLQMNSLKPEYTAFYYCAARRGYYSRNDYWGQVTQVTVSS | high polyreactivity
2 | QVQLVESGGGLVQEGGSLRLSCAASGRTLRYNDMGWYRQAPGKERELVAAISTRGGSTYYADSVKGRFTISRDNAKNTVYLQMYSLKPEDTAVYYCAVTPRIPGHFEDYYWGQGTQVTVSS | low polyreactivity
3 | QVQLVESGGGLVQEGGSLRLSCAASGSIFFYYAMGWYRQAPGKERELVAAITSSGDSTYYADSVKGRFTISRDNAKNTVYLQMNSLKPVETAVYYCAALYIGYTGYYYWGQGTQVTVSS | low polyreactivity
4 | QVQLVESGGGLVQEGGSLRLSCAASGSIFLFYAMGWYRPAPGKERELVARITSSGGTTYYADSVKGRFTISRDNAKNTVYLQMNSLKPEDTAVYYCAAAYIRRSPYYYWGQGTQVTVSS | high polyreactivity
5 | QVQLVESGGGLVQEGGSLRLSCAASGSIFRKYAMGWYRQAPGKERELVAVITTDGSTNYADSVKGRFTISRDNAKNSVYLQMNSMNPEDTAVYYCNAVRSSIGTDIDYWGQGTQVTGSS | low polyreactivity
6 | QVQLVESGGGLVQEGGSLRLSCAASGSIFSIYAMGWYRQAPGKERELVAAIDSGTSTTYADSVKGRFTISRDNAKNTVYLQMNSLKPEDTAVYYCAAALYSDVAAVATYGYYWGQGTQVTVSS | low polyreactivity
7 | QVQLVESGGGLVQEGGSLRLSCAASGSIFYRNAMGWYRQAPGKERELVAAISSDGSTNYADSVKGRFTISRDNAKNTVYLHMNSLKPEDTAVYYCAAPWTQILDYWGQGTQVTVSS | low polyreactivity
8 | QVQLVESGGGLVQEGGSLRLSCAASGSTFPGNAMGWYRQAPGKERELVAAIRDRGTSTYYADSVKGRFTISRDNAKNTVYLQMNSLKPEDTAVYYCAAASRVAKGRWRLYDYWGQGTQVTVSS | high polyreactivity
9 | QVQLVESGGGLVQEGGSLRLSCAASGSTFRHNAMGRYRQAPGKERELVAVITDGASTNYADSVKGRFTISRDNAKNTVYLQMNSLKPEDTAVYYCAAYHRGYYTGREYYYWGQGTQVTVSS | low polyreactivity
10 | QVQLVESGGGLVQEGGSLRLSCAASGSTFYIYGMGWYRQAPGKERELVARISSGGSTYADSVKGRFTISRDNAKNTVYLQMYSLKPEDTAVYYCAAAAARTYRRYRYEGYFYWGQGTQVTVSS | high polyreactivity
11 | QVQLVESGGGLVQEGGSLRLTCAASGIIFTINAMGWYRQAPGKERELVAAIYWGTGTTYYADSVKGRFTISRDNAKNTVYLQMNSLKPEDTAVYYCAADGYDTYGYWGQGTQVTVSS | low polyreactivity
12 | QVQLVESGGGLVQEGGSLRVSCAASGRIFANNAMAGYRQAPGKERELLAAISWSGGNTYYADSVKGRFTISRDNAKNTVYVQMNSLKPDDTAVYYCGAGSPRYSNNYVSYKGWDYSCGQGTQVTVSS | high polyreactivity
13 | QVQLVESGGGLVQEGRSLRLSCAASGRIFCFNVMGWYRQAPGKERELVATISGRTGSTYYADSVKGRFTISRDNAKNTVYLQMNSLKPEVTAVYYCNAVRTVNDYHYDYWGQVTQVTVSS | high polyreactivity
14 | QVQLVESGGGLVQGGGSLRLSCAASGINFSVYPMGWYRQAPGKERELVAAISVGGGRTYYAYSVKGRFTISRDYAKNTFYLEMNSLKAEDTAVYYCDARLGTRQYKMDYWGQGTQVTVSS | high polyreactivity
15 | QVQLVESGGGLVQGGGSLRLSCAASGLIFARNAMGWYRQAPGKERELVAAISKRGGSTFYADSVKGRFTISRDNAKKTVYLQMNSLKPEDTAVYYCHARSSETWHGDYWGQGTQLTVSS | high polyreactivity
16 | QVQLVESGGGLVQGGGSLRLSCAASGRTFQRYAMGWYRQAPGKERELVAAISNRGGSTYYADSVKGRFTISRDNAKNTVYLQMNSLKPEDTAVYYCRTSTPRRVSGNYWGQGTQVTVSS | high polyreactivity
17 | QVQLVESGGGLVQGGGSLRLSCAASGSTFSRYAMGWYRPAPGKERELVAAITGTGGRTYYADSVKGRFTISRANAKNTVYLQRNSLKPEDTAVYYCAAQRWTVKYNYWGQGTQVTVSS | high polyreactivity
18 | QVQLVESGGGLVQGGGSLRLSCAASGSTIPSYAMGCYRQAPGKERELVASITYSDGTTRYADSVKGRFTISRDHAKNPVYLQMNSLIPEDTELYSCNAVYYREGMDYWGQGTQVTVSS | low polyreactivity
19 | QVQLVESGGGLVQGGGSLRLSCDASGLTFPSNAMRWYRQATAKERELVASINRRGTSTFYADSVKGRFTISRDNAKNTFYLQMNSMKPEDTAVYYCNAYEGAAIRSTGRYDYWGHGTQVTVSS | low polyreactivity
20 | QVQLVESGGGLVQGGGSLRLSFAGSGFTFGRYLMGWYSQAPGKERELVAAISRSGGSTHYADSVKGRFTISRDYAMNHFYLQMNSLKPEDTAVYYCAAASPRWPGQGDYWGQGTQVTVSS | high polyreactivity
21 | QVQLVESGGGLVQPGGRLRISCAASGRIFGRYAMGWYRLEPGKERELVAAITSSGGNTYYADSVKGRFTISRDNAKNTVYLQMNSMKPEDTAVYYCIARSARSRRQSDYWGQGTHVTVSS | high polyreactivity

Row | Sequence | polyreactivity (PSR sort gate)
22 | QVQLVESGGGLVQPGGRLRLSCAASGFTFHDYAMGWYRPAPGKERELVAAITKSGGRTYYADSVKGRFTISRDNAKNTVYLQMNSLKPEDTAVYFCAAASYRSQYDYYYWGQGTQVTVSS | high polyreactivity
23 | QVQLVESGGGLVQPGGSLRLSCAASGIIFGYYAMGWYRQAPGKERVLDAAISWSGGSTYYADSVKGRVTISRDNAKNTVYFQMNSLKPEDTAVYYCAAVVRRKSGNDTWRYNYWGQGTQVTVSS | high polyreactivity
24 | QVQLVESGGGLVQPGGSLRLSCAASGLTFDDNAKGWYRHAPGKERELVAAISKSGDGTYYADSVKGRFTISRDNAKNTVYLHMNSLKPEDTAVYYCNADAKYWRYVYWWFGDDYWGQGTQVTVSS | low polyreactivity
25 | QVQLVESGGGLVQPGGSLRLSCAASGLTFPWYAMGWYRQAPGQERELVAAITNSDGNTFADSVKGRFTISRDNAKNSVYLQMNSLKAEDTAVYSCATDTRSLAYYYWGQGTQVTVSS | low polyreactivity
26 | QVQLVESGGGLVQPGGSLRLSCAASGNTFANYAMGWYRQAPGKERELVAAITSNGGSTYYADSVKGRFTISRDNAKNTVFLQMNSLKPEDTAVYYCAADAAYYSGYDYWGQGTQVTVSS | low polyreactivity
27 | QVQLVESGGGLVQPGGSLRLSCAASGRISSYYAMGWYRQAPGKERELVAAISNAGSTKYADSVKGRFTISRDNAKNTVYLQMNRLKPEDTAVYYCNARSYRWSWVLRYDYWGKGTQVTVSS | high polyreactivity
28 | QVQLVESGGGLVQPGGSLRLSCAASGRTFYEYAMGWYRPAPGKERELVAGITSGGSTNYADSVKGRFTISRDNAKNTVYLQMNSLKPEDTAVYYCAASYWGYEYDYWGQGTQVTVSS | low polyreactivity
29 | QVQLVESGGGLVQPGGSLRLSCAASGRTIERNTMGWYRQAPGKERELFAAISYDGGSTYYADSVKGRFTISRDNAKNTVYLQMNSLKPEDTAVYYCNAGGSEIYRSPFDYWGQGTEVTVSS | low polyreactivity
30 | QVQLVESGGGLVQPGGSLRLSCAASGRTYRWYAMGWYRQAPGKERELVASITSGVSTYYADSVTGRCTISRDNAKNTVNLQMNSLKPEDTAVYYCAAGYRFTTYLVYNYWGQGTHVTVSS | high polyreactivity
31 | QVQLVESGGGLVQPGGSLRLSCAASGSIFRVYAMGWYRQAPGKERELVAAISRGGNTNYADSVKGRFTISRDNAKNTVYLQKNSLKPEDTAVYYCNARYYSWDWWIGYDYWGQGTLVTVSS | high polyreactivity
32 | QVQLVESGGGLVQPGGSLRLSCAASGSIFRYYAMGWYRQAPGKERELVATIRSGGSTTYADSVKGRFTISRDNAKNTVYLQMNSLKPEDTAVYYCAATYGWRFTTFPSGYASDYYWGQGTQVTVSS | high polyreactivity
33 | QVQLVESGGGLVQPGGSLRLSCAASGSTFGGYAKGWYRQAPGQERELVAAITWDTGTTYYADSVKGRFTISRDNAKNTVYLQMNSLKPEDTAVYYCAAVGSTTTGVRRRGYWGQGTQVNVSS | high polyreactivity
34 | QVQLVESGGGLVQPGGSLRLSCAASGSTFSWNAMGWYRQAPGKERELVASITWGGGSTYYADSVKGRFTISRDTAKNTVYLQMNSLKPEDTAVYYSAAKYGTSKYSRYYYWGQGTQVTVSS | high polyreactivity
35 | QVQLVESGGGLVQSGCSLRLSCAASGSTFYRYAMGWYRQAPGKERELVAAITSAGSTNYADSVKGRFTISRDNAKNTVYLLMNSLKPEDTAVYYCAADHGRPYFSYDYWGQGTQVTVSS | low polyreactivity
36 | QVQLVESGGGLVQSGGILRLSCAASGGTFYANAMGWYRQAPGKERELVAAITSGGSTNYADSVKRRFTISRDNAKNTVSLQMNSLKPEDTAVYYCNASAQRRYWHSYFRRYDYWGQGTQVTVSS | low polyreactivity
37 | QVQLVESGGGLVQSGGSLLLSCAASGFTFGRYAMAWYRQAPGKERELVAAIRRSGGSTYYADSVKGRFTISRDNAKNTVYLQMNSRKPEDTAVFYCAAVRWWTYGNYDYWGQGTQVTVSS | high polyreactivity
38 | QVQLVESGGGLVQSGGSLRLICAASGRTSLNYAMGWYRQAPGKEMELVAAITRGGGGTYYADSVKGRFTISRDNAKNTVYFQMNSLKPEDTAVYYCAREHKRGGYGYWGQGTQVTVSS | high polyreactivity
39 | QVQLVESGGGLVQSGGSLRLSCAASGFIFPVYTLGWYRHAPGKERELDAAITQIGGSTHYADSVKGRFTISRDNAKNTVYLQMNSLKPEDTAVFYCKAVPSYGTEYDYWGQGTQVTVSS | low polyreactivity
40 | QVQLVESGGGLVQSGGSLRLSCAASGLIFTSYAMGWYRQAPGKERELVAAISYSGGTTFYADYVKGRFTISRDNAKNTVYLQMNSLKPEDTAVYYCAADSLSTTHDTLGYDRDDYWGQGTQVTVSS | low polyreactivity
41 | QVQLVESGGGLVQSGGSLRLSCAASGLIIGLYAMGWYRQAPGTERELVAAISDNGARTYYADSVKGRFTISRDYAKYTVYLQMNSLKPEDTAVDYCARDQSYHYNYWGQGTQVTVSS | low polyreactivity
